Here are results for one substance from US20040077845A1, “Modifier” (priority 2001, published 2004).

Data set [1] can be described thus: solubility of lyophilized modification products in water or PBS. The note with it: dissolved in water or PBS. Format: physicochemical. An excerpt: The modification products of bovine serum albumin and human immunoglobulin G separated using HPLC as described in Example 2 were adequately dialyzed against water and lyophilized. The lyophilized modification products and lyophilized unmodified counterparts for both of the proteins were similarly dissolved in water or PBS.

The target in another data set is T1, bovine serum albumin (Bos taurus, UniProt P02769).
T1 construct: purchased Sigma A0281
Kind of data set: galactose content of the protein modified with agarooligosaccharides (hydrolysis, 2-aminopyridine labelling, HPLC). Format: biochemical. The conditions noted are these: reacted with agarooligosaccharides in PBS pH 7.2, 37° C., 24 hours. Here is the method:
A solution containing the agarooligosaccharides as described in Example 1-(1) at a concentration of 100 mg/ml and a solution containing bovine serum albumin (Sigma, A0281) at a concentration of 11.1 mg/ml in PBS (pH 7.2) were mixed at a ratio of 1:9. The mixture was reacted at 37° C. for 24 hours to obtain a modification product of bovine serum albumin.
In order to confirm that the agarooligosaccharides were attached to the proteins, the modification products of the proteins were dialyzed to remove free agarooligosaccharides, and only high molecular weight fractions were collected by HPLC. HPLC was carried out as follows.
The protein concentrations in the separated fractions were determined by measuring the absorbances at 280 nm, and fractions containing the proteins were collected. As a control, unmodified counterparts for both of the proteins were also separated under the same conditions. Next, the galactose contents in the collected protein fractions were measured. […] The reducing ends of the resulting monosaccharides were fluorescence-labeled with 2-aminopyridine using GlycoTAG and GlycoTAG Reagent kit (both from Takara Shuzo). The sugar compositions were analyzed according to a conventional method by HPLC (Agric. Biol. Chem. 55, 283-284 (1991)) to determine the galactose contents in the respective protein fractions. […]

T1 sequence (P02769 25-607): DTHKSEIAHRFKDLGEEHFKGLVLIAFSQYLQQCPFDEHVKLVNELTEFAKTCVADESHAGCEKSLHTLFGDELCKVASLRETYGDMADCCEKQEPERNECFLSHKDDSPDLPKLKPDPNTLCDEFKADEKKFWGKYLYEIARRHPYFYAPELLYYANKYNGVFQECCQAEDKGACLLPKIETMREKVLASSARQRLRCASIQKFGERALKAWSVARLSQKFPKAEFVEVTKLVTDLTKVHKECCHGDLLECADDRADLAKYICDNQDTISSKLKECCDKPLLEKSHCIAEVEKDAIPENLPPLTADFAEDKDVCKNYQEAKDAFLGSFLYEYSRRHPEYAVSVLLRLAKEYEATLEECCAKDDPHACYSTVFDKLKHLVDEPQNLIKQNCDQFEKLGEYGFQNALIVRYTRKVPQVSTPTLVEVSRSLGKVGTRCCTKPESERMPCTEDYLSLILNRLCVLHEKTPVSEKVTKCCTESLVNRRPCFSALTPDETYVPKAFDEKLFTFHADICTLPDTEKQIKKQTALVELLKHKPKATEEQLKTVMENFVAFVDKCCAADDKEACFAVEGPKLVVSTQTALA

Consider “modification product of bovine serum albumin: bovine serum albumin reacted with the agarooligosaccharides in PBS at 37° C. for 24 hours”, for which, in data set [1], the “solubility compared with unmodified counterparts” value is given as “superior to that of the unmodified counterparts”. The “molecules of galactose attached to one molecule of the modification product” value with bovine serum albumin is listed as “eight”.
